Source: article doi:10.1101/2023.06.12.544689 (bioRxiv, 2023)

Key:
[1] = target: C-terminal domain of Clostridium perfringens enterotoxin (cCpE), tagless (Clostridium perfringens, UniProt P01558)
[2] = target: T1, human claudin-4, biotinylated (hsCLDN-4-Biotin) (human, UniProt O14493 1-209); assay: BLI
T1 sequence: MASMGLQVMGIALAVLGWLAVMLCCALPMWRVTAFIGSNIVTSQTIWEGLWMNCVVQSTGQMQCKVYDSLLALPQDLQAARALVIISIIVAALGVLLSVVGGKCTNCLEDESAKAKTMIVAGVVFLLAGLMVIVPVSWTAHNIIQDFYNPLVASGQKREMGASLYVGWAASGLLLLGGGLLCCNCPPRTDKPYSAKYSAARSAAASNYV

[3] = target: T2, human claudin-9, biotinylated (hsCLDN-9-Biotin) (human, UniProt O95484); assay: BLI
T2 sequence: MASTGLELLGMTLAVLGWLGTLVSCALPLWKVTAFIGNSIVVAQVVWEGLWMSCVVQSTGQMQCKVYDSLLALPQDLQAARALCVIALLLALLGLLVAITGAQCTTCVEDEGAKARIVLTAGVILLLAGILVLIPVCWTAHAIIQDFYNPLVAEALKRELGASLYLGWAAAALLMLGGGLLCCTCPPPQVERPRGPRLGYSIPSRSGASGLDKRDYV

[4] = target: T3, mouse claudin-4, biotinylated (mmCLDN-4-Biotin) (mouse, UniProt O35054 1-210); assay: BLI
T3 sequence: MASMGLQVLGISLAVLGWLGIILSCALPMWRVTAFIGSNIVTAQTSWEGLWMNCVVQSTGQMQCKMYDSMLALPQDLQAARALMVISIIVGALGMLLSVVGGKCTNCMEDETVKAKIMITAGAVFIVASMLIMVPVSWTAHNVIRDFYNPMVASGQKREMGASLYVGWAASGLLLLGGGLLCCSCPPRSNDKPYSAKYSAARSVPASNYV

Binder	binding result [1]	Kd [2] [nM]	Kd [3] [nM]	Kd [4] [nM]
COP-3 (antibody, V domains shown) VH: EVQLVESGGGLVQPGGSLRLSCAASGFNFYSSSIHWVRQAPGKGLEWVAYISSYSGYTYYADSVKGRFTISADTSKNTAYLQMNSLRAEDTAVYYCARGYGYFDYNFSVGYALDYWGQGTLVTVSS VL: DIQMTQSPSSLSASVGDRVTITCRASQSVSSAVAWYQQKPGKAPKLLIYSASSLYSGVPSRFSGSRSGTDFTLTISSLQPEDFATYYCQQSHPWYYPITFGQGTKVEIK	binds	–	–	–
cCpE-His10 (domain or fragment) STDIEKEILDLAAATERLNLTDALNSNPAGNLYDWRSSNSYPWTQKLNLHLTITATGQKYRILASKIVDFNIYSNNFNNLVKLEQSLGDGVKDHYVDISLDAGQYVLVMKANSSYSGNYPYSILFQKF	–	< 12	< 12	< 12
